The results in this text go back to the DeepSol protein solubility set.

This data set is described as follows: soluble on expression in E. coli; label from the status in PepcDB or PDB records.
With “MSLKKLITANDIREAHARGEQAMSVVLRASIITPEAREVADLLGFTITECDESIPVTASVPASVPADKTESQRIRETIIAQLPEGQFTESLVAQLMEKVMKEKQSLEQGAMQPSFKSVTGKGGIKVIDGSSVKFGRFDGAEPHCVGLTDLVTGDDGSSMAAGFMQWENAFFPWTLNYDEIDMVLEGELHVRHEGQTMIAKAGDVMFIPKGSSIEFGTTSSVKFLYVAWPANWQSLEGGSHHHHHH”, the “soluble on expression in E. coli” value is reported as “soluble”.

With “MYHDRRRTGFRQYETYMKQKQSADWQLDELLEELEALETQLNSSNGGDQLLLGVSGIPASSSRENVKSISTLPPPPPALSYHQTPQQPQLLHHHNNHLGYQNGIHQITSINSAASSCSSPDGDSAFGDSSSTESSNNRCRNSAFSSNDSCRDSLNTPSPTQVSPRNGELNAEEAKAQKIRQALEKMKEAKVTKIFVKFFVEDGEALQLLIDERWTVADTLKQLAEKNHIALMEDHCIVEEYPELYIKRVYEDHEKVVENIQMWVQDSPNKLYFMRRPDKYAFISRPELYLLTPKTSDHMEIPSGDQWTIDVKQKFVSEYFHREPVVPPEMEGFLYLKSDGRKSWKKHYFVLRPSGLYYAPKSKKPTTKDLTCLMNLHSNQVYTGIGWEKKYKSPTPWCISIKLTALQMKRSQFIKYICAEDEMTFKKWLVALRIAKNGAELLENYERACQIRRETLGPASSMSAASSSTAISEVPHSLSHHQRTPSVASSIQLSSHMMNNPTHPLSVNVRNQSPASFSVNSCQQSHPSRTSAKLEIQYDEQPTGTIKRAPLDVLRRVSRASTSSPTIPQEESDSDEEFPAPPPVASVMRMPPPVTPPKPCTPLTSKKAPPPPPKRSDTTKLQSASPMAPAKNDLEAALARRREKMATMECMGHHHHHHENLYFMGHHHHHHENLYFQSH”, the “soluble on expression in E. coli” value is “soluble”.

For “MGSDKIHHHHHHMSTRQLLRNHYVQVDRSKKPYCFLLAKEPEYNDILNNYRIPLGEYQFKRTLFAREWLYKDVWHEMVSFAFCREPLSRCISAFFYLWEAEAQRRAWLPSFNGALNAHGYGLDYSFDQFLDAVVACRDSGSNFSPMGLHFSTHTATMWDDVTDSGGSILLSNIFRLEDLIHGINHVFSVCGVPDKAKPLLRDINTNETKRPFTPSRHHIAKVEDLYGKDFELYETYGRLF”, the “soluble on expression in E. coli” value was “not soluble”.

With “SSMTSRYKRSIESATNVATELSKGNYDARTYGGYIRRSDKLGHAMNSLAIDLMEMTRTQEMQRDRLLTVIENIGSGLIMIDGRGFINLVNRSYAKQFHINPNHMLRRLYHDAFEHEEVIQLVEDIFMTETKKCKLLRLPIKIERRYFEVDGVPIMGPDDEWKGIVLVFHDMTETKKLEQMRKDFVANVSHELKTPITSIKGFTETLLDGAMEDKEALSEFLSIILKESERLQSLVQDLLDLSKIEQQNFTLSIETFEPAKMLGEIETLLKHKADEKGISLHLNVPKDPQYVSGDPYRLKQVFLNLVNNALTYTPEGGSVAINVKPREKDIQIEVADSGIGIQKEEIPRIFERFYRVDKDRSRNSGGTGLGLAIVKHLIEAHEGKIDVTSELGRGTVFTVTLKRAAEKSA”, the “soluble on expression in E. coli” value was “not soluble”.

“MGSDKIHHHHHHMTDERIHILRDILLELHNGASPESVQDRFDATFTGVSAIEISLMEHELMNSDSGVTFEDVMELCDVHANLFKNAIKGVEVSDTEHPGHPVRVFKEENLALRAALIRIRRLLDTYESMEDEEMLAEMRKGLVRQMGLVGQFDIHYQRKEELFFPIMERYGHDSPPKVMWGVDDQIRELFQTALTTAKSLPEVSISSVKEAFEAFATEFESMIFKEESILLMILLESFTQDDWLQIAEESDAYGYAIIRPSEKWVPERQSFIEEKIAEEPVQLDTAEGQVQQVIDTPEGHFTITFTPKEKEAVLDRHSQQAFGNGYLSVEQANLILNHLPMEITFVNKEDIFQYYNDNTPADEMIFKRTPSQVGRNVELCHPPKYLDKVKTIMKGLREGSKDKYEMWFKSESRGKFVHITYAAVHDEDGEFQGVLEYVQDIQPYREIDTDYFRGLE”: the “soluble on expression in E. coli” value was “not soluble”.

Take “MGSDKIHHHHHHMKHFKYGAIALTLISGLAACGGSGSDEPEVVVPETGFSFDADALIVNLSDEVIVKGYSTLADRGEALLQATQTLVATPTQANLEAAQSAWKAARQPWEQGESHIFGPVDSLGIDPHLDSWPLNTTDLKTVLINSSGFDAETIKGWNDDVQGFHTMEFLLFGDGMDDNVKQIDELTANERDYLMGLAEVFRDYTKQLADAWLVSHDGQSGKAYGELLKSPGVDGNTFYSSQVGVLEELIKGMIGIVDEVGNGKIADPFGGSLASADTSKVESQYSWNSLTDFSDNIIGVRNVYQGEFTGEADKQGIIDFVRAADSELASRIAAEIDAAILQIHAIEGTDKMPFRQAIKDEAGRARIQKAVDALATLQASLENQVLPLLKEWKV”: the “soluble on expression in E. coli” value is “not soluble”.

Turning to “SLNSSIDVDSLMRSVSRVFKFIDMPTEGKPTKSTKPYKNGQLSKVMIIENSHVKKDDIWPSGGQMTVKDLTAKYTEGGNAILENISFSISPGQRVGLLGRTGSGKSTLLSAFLRLLNTEGEIQIDGVSWDSITLQQWRKAFGVIPQKVFIFSGTFRKNLDPYEQWSDQEIWKVADEVGLRSVIEQFPGKLDFVLVDGGCVLSHGHKQLMCLARSVLSKAKILLLDEPSAHLDPVTYQIIRRTLKQAFADCTVILCEHRIEAMLECQQFLVIEENKVRQYDSIQKLLNERSLFRQAISPSDRVKLFPHRNSSKCKSKPQIAALKEETEEEVQDTRL”, the “soluble on expression in E. coli” value is “soluble”.

Consider “MDYLSFIAVAAHEFVHTWNVKQYRPKGIVPYDYQQENYSNLLWLVEGSTSYLQYQLLLRGNLMTTDEFFTALAKRITAHAHKPGKESQSVAQASFDAWISEGGDYGNNHSVNILEHHHHHH”, for which the “soluble on expression in E. coli” value was “soluble”.

Consider “MLQLLLFLIFCSFTNASSCQDKSPYCNPNDCEVRPGYAMVYCRKTCGNCADFCEDSKFITCSAERKKDCDDMLSDYCPRLCGKCYAKLKPDSKRTKTIPVTQFKRNPAATSTTTTTTRSPSIRMKQPRMLPNGTFINPPLPKYEKLDDTTYTIPEHPTVIDYPIAHMEELMIPEPQRIWPEPEPMRIEPISVYSPYSFVPVQPQVSQPYSPWSPTLGLSSSLDSSRRAPQNYFSSYSQYPQYPDEKLNTIAPNPMQLVEPFLTPGQNDLNPKSMSSLINLLGCKDKDEVICKHVTADTCLSRPGYYLKLCPVTCKNCSGYQCIDSIKIDCAEVKAQGACKLSVASEYCPRTCEYCNPPSDMAKTMSDCKDELETCEQLAESGACQHDFR”, for which the “soluble on expression in E. coli” value was “not soluble”.

Take “MGSDKIHHHHHHMKIFNAMFSKVNGGLEQVFLNYIPALSSQGNLVIPIIHPKAEIRNSCPQDHLITVHNFNQHDFFAIHRLKKLIKIHQPDCIITHSYRAAYLFKKTRTKVPKIAVCHVKGHYDFGTDAIIALTEQMRRDIINSGIEERRVFTIPNLIHIPDGLQYREPKNNQIPIIGVCARFAAIKGVDVFINALAELKKRGVAFQAKIAGDGKEKEQYIELIRHHGLEHEITLLGWIEDKESFYKSIDIFCLPSREESFGLVVLESMMHSLPMVLTRLSGPLEIAGNSGCALFVPPEDPVSMADGLERLLRDKDLSKQLALKAFQRVQHYSSTKVAPMLHKVLEKACEINQQ”: the “soluble on expression in E. coli” value is reported as “not soluble”.

Consider “MAHHHHHHMRLRSPCGVKGIAADALVDLVQSCYPSATVLFTSVANNVAAADNSELRISSSLDAWQAKLHTRRAWRQGLSVDTPGFQRILARRHIVPARSAEAAASSWWALLYAADATNRPRVALPRQPSQSLPPSHIAHPILCCPDAIVYIGGVEVRDVTQVVAPTLVDAVTRVEAPHSTVGAASATHRAERQAPSYCRRRVDWPTVWADKRCAMRGADLLELSLAVPSDLGHRHADVRERVLVSIANPDVTLADLQRQPHAGRRGPLRTSFGFSLPCVQAALPAAVIRAVRVLRRWQRDVAHCIPSTSAFWVSSIGHLLETSVGDAASPLTQWAEACTRQEQELGMSETQMRHLFAIVQPDSDQTSTRVPLPEDATKLLTFLLTSTVLQLACTSPLEAWNGTNYFLPAERFDGTTDAEVLLRTMRSVAGTHLTFPIFSSLYGSPCGAEQGPLSQSSP”, for which the “soluble on expression in E. coli” value is “not soluble”.

“MPEALRTQIDELNSWIYDKVNNGVYKAGFATTQSAYDESASTVFAALSDLETILAKQRYLTGEQLTEADLRLWTTLIRFDPVYHTHFKCDKYRLSDYPNLFGFLRDIYQMPGIAETVDMAHIRHHYYRSHGTINPHGVISLGPEQDLNQPHQRDKKFVDLYLEHHHHHH”: the “soluble on expression in E. coli” value is given as “soluble”.

With “MSQHLVPEAKNGLSKFKNEVANEMGVPFSDYNGDLSSRQCGSVGGEMVKRMVEKYEQSMK”, the “soluble on expression in E. coli” value was “soluble”.

With “SNVFARSSVLAAEMIDVFDRTHTEKELVFQSKELCRDFIHSRITREGLSWSKVELDLPEPRGVLVDVSVVLLKLGDELECMRPYVYRNIAKQLNISVSVEAVVSDAFLSVATEVIAMGITWGKVVAIYAVAAGLAVDCVRLGHPVMVHTIVDSLGEFVRRSLVPWLKKRGGWVDILKCVVNMDSRAHVHWLSTAVLTWREFIKTMYVYLTK”, the “soluble on expression in E. coli” value was “soluble”.

As for “SAPSQAPSRDRAGQEDEDRWEARGDRKARKPLVEKKRRARINESLQELRLLLAGTEVQAKLENAEVLELTVRRVQGALRGRAREREQLQAEASERFAAGYIQCMHEVHTFVSTCQAIDATVSAELLNHLLESMPLREGSSFQDLLGDSLAGLPGGSGRSSWPPGGSPESPLSSPPGPGDDLCSDLEEIPEAELNRVPAEGPDLVSTSLGSLTAARRAQSVWRPW”, the “soluble on expression in E. coli” value is reported as “soluble”.

For “MGSRNIVRAVLEEKKTEAITEVDEKGITCVMKFGGSSVASAERMKEVADLILTFPEESPVIVLSAMGKTTNNLLLAGEKAVSCGVSNASEIEELSIIKELHIRTVKELNIDPSVILTYLEELEQLLKGIAMMKELTLRTRDYLVSFGECLSTRIFAAYLNTIGVKARQYDAFEIGFITTDDFTNGDILEATYPAVAKRLYDDWMHDPAVPIVTGFLGKGWKTGAVTTLGRGGSDLTATTIGKALGLKEIQVWKDVDGVLTCDPTIYKRATPVPYLTFDEAAELAYFGAQVLHPQSMRPAREGEIPVRVKNSYNPKAPGTIITKTRDMTKSILTSIVLKRNVTMLDIASTRMLGQVGFLAKVFSIFEELGISVDVVATSEVSISLTLDPSKLWSRELIQQELDHVVEELEKIAVVNLLKGRAIISLIGNVQHSSLILERAFHVLYTKGVNVQMISQGASKVNISFIVNEAEAEGCVQALHKSFFESGDLSELLIQPRLGNGSPVRTLQVEN”, the “soluble on expression in E. coli” value is on record as “soluble”.

As to “MKVIIFYTKTGGGHLSACKSLEESLNSMNIPVVTLDSLEFAGHLVSKEICSAYNYIVKSVPELFGALYNAGEKISDHNKKSIIYKLNSFYADNILTVLEEEQPDIIISTHIFATQSLSYLKQKNKVKALTASIVTDYTCAPFWEETDLDYYFLPHKDLIKEFKDKGLDSSKLIAFGLPIDSKFKVKTPKEKAKFNLALKKDKPHILIMGGSMGAGSVKDTTLYISKHLKECNITTICGNNKELFKEISEIKKSNPKIHVLQFTHEMNELMDSADILITKPGGLTSTEAMNKSLPIIMINPIPGVESANCNFFMKHNLGIKSNSLHETLKVCEKLISDKNFYEKIVSSQKLNSNINAAEDICKFLITKYHEIQYNSDNNSLLEHHHHHH”, the “soluble on expression in E. coli” value was “soluble”.
